The chains are these.
B1: Peripheral plasma membrane protein CASK, residues 488 to 569; numbered along this chain, O14936 (parent)
chain: VRLVQFQKNTDEPMGITLKMNELNHCIVARIMHGGMIHRQGTLHVGDEIREINGISVANQTVEQLQKMLREMRGSITFKIVP

± gives the uncertainty stated by the source.

In the data set the parent is B1. Put plainly: abundance fitness (aPCA) (normalised: wild type 0, dead -1); higher = more abundant; growth selection in yeast, the domain comes from the species named. The note with it: Homo sapiens.
With G54N, the abundance fitness was -0.16 ± 0.12.
In the case of G54Q, the abundance fitness is -0.085 ± 0.077.
For R39H the value was -0.118 ± 0.043.
For R39P the value was -0.469 ± 0.04.
In the case of R39T, the abundance fitness is -0.07 ± 0.03.
Next, V45G: -0.548 ± 0.054; V45Y: -0.665 ± 0.35; V45W: -0.464 ± 0.12.
As to V45R, the abundance fitness is -0.169 ± 0.043.
For V45Q the value was -0.134 ± 0.061.
With R2D, the abundance fitness was -0.149 ± 0.054.
For R2G the value was -0.225 ± 0.024; for F78T, -0.677 ± 0.066; for F78L, -0.007 ± 0.027.
Next, F78V: -0.198 ± 0.035.
For F78Q the value was -1.22 ± 0.42.
Regarding F78W, the abundance fitness is -0.484 ± 0.074.
Next, F78D: -1.22 ± 0.36; E22M: -0.078 ± 0.041.
Next, E22H: -0.037 ± 0.05.
Next, E22L: -0.135 ± 0.032; E22W: -0.138 ± 0.033.
For D11I, the abundance fitness was -0.142 ± 0.074.
For D11P the value was -0.069 ± 0.043; for D11F, -0.251 ± 0.16.
Next, R73W: -0.117 ± 0.027; R73Q: -0.006 ± 0.031; R73P: -0.357 ± 0.041.
Next, R73V: -0.038 ± 0.024; R73C: -0.011 ± 0.038.
As to T10N, the abundance fitness is -0.075 ± 0.061.
Regarding T10H, the abundance fitness is -0.064 ± 0.071.
Next, T10E: -0.07 ± 0.032.
Next, T10F: 0.012 ± 0.085.
Next, L69K: -0.9 ± 0.074.
For the variant L69V, the abundance fitness was -0.038 ± 0.027.
Next, L69N: -0.609 ± 0.086; L69I: -0.08 ± 0.055; L69F: -0.101 ± 0.048.
Next, L69M: -0.029 ± 0.033; L69P: -0.944 ± 0.086; G35E: -0.187 ± 0.029.
G35W: the abundance fitness is -0.422 ± 0.035.
As for G35N, the abundance fitness is -0.28 ± 0.068.
For G35R, the abundance fitness is -0.278 ± 0.024.
For G35F, the abundance fitness was -0.243 ± 0.057.
As for H44A, the abundance fitness is -0.006 ± 0.023.
Next, H44C: -0.012 ± 0.033; H44S: -0.007 ± 0.023.
Turning to H44Y, the abundance fitness was -0.075 ± 0.051.
Take Q7Y: the abundance fitness turned out to be 0.021 ± 0.043.
Next, Q7P: -0.177 ± 0.034; Q7L: -0.027 ± 0.025.
Next, F6T: -0.129 ± 0.028; F6S: -0.321 ± 0.027.
For F6P the value was -0.924 ± 0.071; for F6V, 0.061 ± 0.022; for F6G, -0.405 ± 0.022.
Turning to F6C, the abundance fitness is -0.01 ± 0.029.
For F6D, the abundance fitness was -0.712 ± 0.054.
Take S75M: the abundance fitness is -0.081 ± 0.041.
For S75F the value was -0.037 ± 0.043.
For S75V the value was 0.011 ± 0.025; for S75R, -0.011 ± 0.023.
Next, S75L: 0.034 ± 0.03; S75T: 0.023 ± 0.033; S75Q: 0.019 ± 0.034.
In the case of G41Y, the abundance fitness is -0.639 ± 0.08.
For G41A the value was -0.083 ± 0.024.
Next, G41P: -0.541 ± 0.047.
Next, G41E: -0.1 ± 0.028; G41C: -0.137 ± 0.031; E48K: -0.19 ± 0.055.
On to E48N, for which the abundance fitness was -0.326 ± 0.082.
Next, T42P: -0.336 ± 0.033; T42S: 0.005 ± 0.024; T42Q: 0.003 ± 0.031.
For T42N the value was -0.039 ± 0.046; for T42M, 0.01 ± 0.032.
Next, T42R: -0.038 ± 0.02.
On to T42L, for which the abundance fitness is -0.003 ± 0.024.
Next, G46E: -0.293 ± 0.042; G46A: -0.624 ± 0.045.
For G46L the value was -0.638 ± 0.05.
In the case of G46C, the abundance fitness was -0.721 ± 0.081.
Next, K19H: -0.01 ± 0.04; K19F: -0.041 ± 0.036; K19M: -0.071 ± 0.033.
For G15V the value was -0.682 ± 0.048; for G15N, -0.398 ± 0.048.
For G15E the value was -0.201 ± 0.051; for I37N, -0.391 ± 0.059; for I37F, -0.092 ± 0.048.
With I37R, the abundance fitness was -0.531 ± 0.026.
For I37C the value was -0.024 ± 0.034; for I37Y, -0.38 ± 0.056.
Next, T17R: -0.031 ± 0.021.
Take T17H: the abundance fitness amounted to 0.031 ± 0.029.
For T17F the value was -0.071 ± 0.045.
Next, T17N: -0.09 ± 0.032; C26A: -0.067 ± 0.025; I16K: -1.14 ± 0.24.
For I16L the value was 0.088 ± 0.036.
As for I16W, the abundance fitness is -0.044 ± 0.033.
For I55R the value was 0.007 ± 0.02; for I55W, -0.074 ± 0.026; for I55C, 0.026 ± 0.033.
For K67T the value was 0.001 ± 0.032; for K67D, 0.02 ± 0.038.
On to K67N, for which the abundance fitness amounted to 0.003 ± 0.057.
For K67G the value was -0.014 ± 0.024.
Consider K67Q, for which the abundance fitness is -0.054 ± 0.042.
Next, L3F: 0.007 ± 0.05; I49A: -0.856 ± 0.089.
Consider I49D, for which the abundance fitness was -0.24 ± 0.2.
For I49G the value was -1.05 ± 0.11.
For E51T, the abundance fitness is -0.301 ± 0.29.
Next, E71L: -0.074 ± 0.028; E71A: -0.03 ± 0.025.
Next, E71Q: -0.051 ± 0.035; L43T: -0.76 ± 0.06.
Next, L43G: -0.985 ± 0.043; L43Y: -0.733 ± 0.11; L43R: -0.853 ± 0.036.
On to L43S, for which the abundance fitness was -0.755 ± 0.051.
For L43H the value was -0.97 ± 0.16.
Next, I27D: -1.05 ± 0.1.
Next, I27C: -0.16 ± 0.029.
For the variant I27E, the abundance fitness is -0.05 ± 0.03.
On to I27Q, for which the abundance fitness was -0.106 ± 0.03.
Next, I27A: -0.166 ± 0.025; I27W: -0.187 ± 0.027.
Regarding I27M, the abundance fitness was -0.052 ± 0.03.
Next, E63I: -0.108 ± 0.056; E63R: -0.121 ± 0.021.
For E63G the value was -0.027 ± 0.02.
For E63T the value was -0.109 ± 0.03; for K8P, -0.256 ± 0.034.
Turning to K8W, the abundance fitness was -0.136 ± 0.026.
Next, K8V: -0.007 ± 0.023.
For K8G the value was -0.242 ± 0.022.
Consider K8C, for which the abundance fitness is -0.326 ± 0.038.
Next, L23V: 0.012 ± 0.025; L23G: 0.033 ± 0.021; L23K: 0.005 ± 0.035.
With L23C, the abundance fitness stood at 0.013 ± 0.035.
For L23W the value was 0.007 ± 0.026; for L23E, 0.086 ± 0.028; for N9V, 0.005 ± 0.022.
Next, N9S: -0.009 ± 0.025.
With N9A, the abundance fitness was -0.003 ± 0.025.
For N9E the value was 0.055 ± 0.026; for T61V, -0.329 ± 0.025; for T61H, -0.074 ± 0.041.
T61F: the abundance fitness is -0.457 ± 0.058.
For I76A the value was -0.308 ± 0.033; for I76P, -0.647 ± 0.094; for I76M, -0.082 ± 0.049.
Regarding I76W, the abundance fitness was -0.236 ± 0.032.
As to I76D, the abundance fitness was -0.818 ± 0.1.
For I76K the value was -1.11 ± 0.13; for H25G, -0.046 ± 0.021.
For H25L the value was -0.064 ± 0.025.
Regarding H25W, the abundance fitness is -0.32 ± 0.031.
For H25C the value was -0.013 ± 0.031; for N59C, -0.114 ± 0.043; for N59M, -0.099 ± 0.033.

Source of the values: the Human Domainome abundance scans (Beltran et al. 2025).
